The values that follow come from publication doi:10.1101/2022.11.01.514793.

Experiment [1] concerns the target AdgH (Variovorax). As to the kind of experiment: cryo-EM structure.
For experiment [2], the target named is AdgH (Variovorax). As to the kind of experiment: SEC. (In general: Size exclusion chromatography separates by hydrodynamic size, large species first.)
For another experiment, the target named is AdgI (Variovorax). Briefly: cryo-EM structure.

Usually stoichiometry N stands for a count of units in the complex or per binding partner. Consider AdgH (enzyme), for which the stoichiometry N with AdgH (Variovorax) [1] was found to be 3.

As for AdgI (enzyme), in the experiment with AdgH (Variovorax) [2], the stoichiometry N (AdgI:AdgH molar ratio) came to 1. In the experiment with AdgI (Variovorax), this substance had a stoichiometry N of 3.
